Series [1] in a line: Antibody buffering of lysozyme: free lysozyme in plasma after Protein A-Sepharose separation. In kind it is in vivo, rat. The settings on record: lysozyme administered with D1.3, compared with lysozyme alone. Here is the method:
(§1) Rats (300 g Sprague-Dawley males, Zivic Laboratories, Zelionople, Pa.) were implanted with a jugular vein cannula. The rats were freely moving throughout the experiment and were allowed access to food and water. Samples were prepared for infusion consisting of 43 μg ^14C-lysozyme with or without 450 μg D1.3 antibody. The volume was brought to 1 ml using sterile normal saline and the sample was incubated at 37° C. prior to use. The sample was infused through the jugular cannula over 5 minutes using an HP infusion pump. Following the infusion, the cannula was flushed with 0.2 ml of heparinized saline (250 units/ml) to reduce the risk of clotting. […] Blood samples (0.5 ml) were withdrawn from the cannula at various timepoints. The blood was immediately centrifuged to separate out the plasma. Plasma (0.1 ml) was mixed with 5 ml scintillation fluid and counted. Another 0.1 ml was used in bound vs. free lysozyme experiments described herein. The cellular pellet was mixed with scintillation fluid and counted also.
Following blood sample centrifugation to separate out the plasma, 0.1 ml of plasma was loaded onto a 1.5 ml Protein A-Sepharose mini-column. The column was washed with 3 ml of PBS in 0.5 ml increments followed by 3 ml of 100 mM citric acid in 0.5 ml increments. The PBS (free lysozyme) and citric acid (antibody-bound lysozyme) fractions were collected separately for each timepoint. […]

Series [2] can be described thus: Antibody buffering of lysozyme: total 14C-lysozyme in rat plasma. In kind it is in vivo. Here is the method: as §1
Sprague-Dawley rats implanted with a jugular cannula were infused with 43 μg ^14C-lysozyme and either 450 μg or 900 μg of D1.3 antibody. The volume infused was brought up to 1 ml using sterile normal saline. The samples were prepared and infused and timepoints were taken and analyzed as described above. Bound vs. free separation analyses were not performed.
Sprague-Dawley rats implanted with a jugular cannula were infused with 450 μg of D1.3 antibody and either 43 μg or 430 μg of ^14C-lysozyme. The samples were prepared, infused, and timepoints were taken and analyzed as described above.
Two samples were prepared for infusion. The first sample, consisting of 450 μg D1.3 antibody diluted to 0.5 ml with sterile normal saline, was infused over 4 minutes using an HP infusion pump. The rat was allowed to move freely in its cage for 10 minutes to allow the antibody time to equilibrate within the circulation. Then the second sample, consisting of 43 μg ^14C-lysozyme made up to 0.5 ml using sterile normal saline, was infused over 4 minutes. The end of the second infusion was designated as time zero (0). Blood samples were taken and analyzed as described above.
To determine the pharmacokinetic profile of lysozyme using a radioactive method of lysozyme detection, ^14C-lysozyme was infused through a jugular cannula into the bloodstream of a rat. Lysozyme elimination was followed through blood sampling at various time intervals spanning 4 hours. The plasma was collected after centrifugation and subjected to scintillation counting. […] Each rat in these and in the following studies was used only once to limit the possibility of an immune response to either the lysozyme or the antibody.

As to “lysozyme: hen egg lysozyme radioactively labeled with 14C, model protein ligand”, the “free lysozyme pool in plasma” value in series [1] was “remained at a more constant level”. For the same substance, the “plasma β-half life of lysozyme” value in series [2] (14C-lysozyme administered alone, jugular infusion) was found to be 16.4 min; in series [2] (14C-lysozyme with equimolar D1.3), 42.8 min; in series [2] (14C-lysozyme with two times the molar amount of D1.3) it was 61.3 min. For the same substance, the “radioactivity in the cellular pellet of blood” value in series [2] (14C-lysozyme alone or with D1.3) was “Little radioactivity”. Besides, the “total lysozyme level in plasma at later timepoints relative to equimolar group” value in series [2] (D1.3 with ten times the molar concentration of 14C-lysozyme) is reported as “about twice as high”. The “total lysozyme concentration in plasma after sequential administration” value in series [2] (equimolar lysozyme infused ten minutes after D1.3) is “quickly equilibrated to a level very similar to that attained when the D1.3 and lysozyme were administered together”.

(Values after patent publication US20160082105A1, “Antibody Buffering of a Ligand in Vivo” (ARROWSMITH TECHNOLOGIES CORPORATION, priority 2004, published 2016).)
